Laboratory results: US6291235
Blank lines part the entries; values can stand above or below the substance they belong to.

How the values were obtained:
[1] = target: rabbit muscle actin (rabbit) (UniProt P68135); experiment: surface plasmon resonance (BIAcore), whole A33 immobilised, 0.3 µg rabbit muscle actin injected
[2] = target: A33 antigen on the surface of human colon cancer cells (human); experiment: rosetting assay on LOVO cells
[3] = target: A33 antigen on the surface of human colon cancer cells (human); experiment: rosetting assay on SW403 cells
[4] = target: A33 antigen on the surface of human colon cancer cells (human); experiment: rosetting assay on LS 180 cells
[5] = target: A33 antigen on the surface of human colon cancer cells (human); experiment: rosetting assay on SNC-2B cells
[6] = target: A33 antigen on the surface of human colon cancer cells (human); experiment: rosetting assay on SW1222 cells
[7] = target: A33 antigen on the surface of human colon cancer cells (human); experiment: rosetting assay on LS 174T cells
[8] = target: A33 antigen on the surface of human colon cancer cells (human); experiment: rosetting assay on LIM 1215 cells
[9] = target: A33 antigen on the surface of human colon cancer cells (human); experiment: rosetting assay on NCI-H508 cells
[10] = target: A33 antigen on the surface of human colon cancer cells (human); experiment: rosetting assay on SK-CO-17 cells
[11] = target: A33 antigen on the surface of human colon cancer cells (human); experiment: rosetting assay on SK-CO-19 cells
[12] = target: A33 antigen on the surface of human colon cancer cells (human); experiment: rosetting assay on ASPC-1 (pancreatic) cells
[13] = target: rabbit muscle actin (rabbit) (UniProt P68135); experiment: surface plasmon resonance (BIAcore), F(ab)'2 immobilised, 0.3 µg rabbit muscle actin injected

signal at the end of the injection pulse (RU) [1]: 247 RU
Substance: whole A33 (A33 IgG) immobilised on the biosensor surface (antibody)

Rosetting A. Titer [2]: 4096
Rosetting A. Titer [3]: 8192
Rosetting A. Titer [4]: 2048
Rosetting A. Titer [5]: 4096
Rosetting A. Titer [6]: 4096
Rosetting A. Titer [7]: 4096
Rosetting A. Titer [8]: 8192
Rosetting A. Titer [9]: 4096
Rosetting A. Titer [10]: 512
Rosetting A. Titer [11]: 8192
Rosetting A. Titer [12]: 8192
Substance: monoclonal antibody A33 (mAb A33), murine immunoglobulin, isotype IgG2a, secreted by hybridoma ATCC No. HB 8779

signal at the end of the injection pulse (RU) [13]: 4 RU
Substance: F(ab)'2 fragment of A33 humanized monoclonal antibody
